Biological target: KDM2B^F-box-LRRs/SKP1 dimer (UniProt Q8NHM5)
Assay: ITC

Chain of KDM2B^F-box-LRRs/SKP1 dimer (Q8NHM5 1059-1336, chain 1 of 2): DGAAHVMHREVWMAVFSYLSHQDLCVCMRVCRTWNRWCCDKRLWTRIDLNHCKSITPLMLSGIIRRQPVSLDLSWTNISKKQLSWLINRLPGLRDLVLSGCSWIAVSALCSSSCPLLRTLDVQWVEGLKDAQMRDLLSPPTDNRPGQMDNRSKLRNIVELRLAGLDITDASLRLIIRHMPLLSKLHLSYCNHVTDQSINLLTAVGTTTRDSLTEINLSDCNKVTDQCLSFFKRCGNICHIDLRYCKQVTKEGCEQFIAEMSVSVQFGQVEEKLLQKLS
Chain of KDM2B^F-box-LRRs/SKP1 dimer (P63208 2-163, chain 2 of 2, further chain): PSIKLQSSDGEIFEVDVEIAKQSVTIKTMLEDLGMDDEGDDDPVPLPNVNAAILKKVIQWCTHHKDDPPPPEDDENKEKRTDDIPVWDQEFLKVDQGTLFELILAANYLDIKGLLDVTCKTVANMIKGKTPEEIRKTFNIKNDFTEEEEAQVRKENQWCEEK

fold reduction of the affinity against the wild-type pair [fold] | Substance
> 12 | BCOR^N1607 (D/E on Poly-D/E^3rd (1624–1631) mutated to Ala)/PCGF1^RAWUL (from UniProt Q6W2J9 1607-1755; Q9BSM1 150-255) (complex)
> 2.5 | BCOR^N1607 (D/E on Poly-D/E^2nd (1607–1611) mutated to Ala)/PCGF1^RAWUL (from UniProt Q6W2J9 1607-1755; Q9BSM1 150-255) (complex)
